Test results: article PMC3247280, “Oligomerization of ZFYVE27 (Protrudin) Is Necessary to Promote Neurite Extension” (PLoS ONE, 2011)

Experiments:
[1] = molecular target: the molecule itself; assay: SDS-PAGE and immunoblot (SDS-resistant dimer); lysates of NIH-3T3 overexpressing E2-ZFYVE27^WT or c-Myc-ZFYVE27^WT, immunoblot with ZFYVE27 antibody
[2] = molecular target: the molecule itself; assay: SDS-PAGE and immunoblot (SDS-resistant dimer); NSC34 cell extract, cytosolic (S-100) and membrane (P-100) fractions, immunoblot with ZFYVE27 antibody

Protein	stoichiometry N [1]	stoichiometry N [2]
ZFYVE27^WT (full-length ZFYVE27, E2- or c-Myc-tagged, in mammalian cells) (natural protein, human, UniProt Q5T4F4-2 1-404, looked up, numbers count on: this 404-residue isoform; Each copy carries only one tag: E2 (vector pQM-N-Tag A) or six c-Myc tags (vector pCS2-myc); The two differently tagged copies are written as one molecule because the protein is tested against itself; With the E2-tagged deletion constructs the c-Myc copy was used; with GFP-Spastin and in the sucrose gradient the E2 copy; also called E2-ZFYVE27^WT; …) MQTSEREGSGPELSPSVMPEAPLESPPFPTKSPAFDLFNLVLSYKRLEIYLEPLKDAGDGVRYLLRWQMPLCSLLTCLGLNVLFLTLNEGAWYSVGALMISVPALLGYLQEVCRARLPDSELMRRKYHSVRQEDLQRGRLSRPEAVAEVKSFLIQLEAFLSRLCCTCEAAYRVLHWENPVVSSQFYGALLGTVCMLYLLPLCWVLTLLNSTLFLGNVEFFRVVSEYRASLQQRMNPKQEEHAFESPPPPDVGGKDGLMDSTPALTPTEDLTPGSVEEAEEAEPDEEFKDAIEEDDEGAPCPAEDELALQDNGFLSKNEVLRSKVSRLTERLRKRYPTNNFGNCTGCSATFSVLKKRRSCSNCGNSFCSRCCSFKVPKSSMGATAPEAQRETVFVCASCNQTLSK	2	
endogenous ZFYVE27 of NSC34 cells (natural protein, mouse (endogenous in NSC34), UniProt Q3TXX3 1-415, looked up, ZFYVE27 expressed endogenously in NSC34 (a mouse embryonic spinal cord-neuroblastoma hybrid cell line); also called mo-ZFYVE27; di-ZFYVE27) MQTSDRDLSGPEASPSGMPEVLSECPPAPTKSAAFDLFNLVLSYKRLEIYLEPLKDAGDGVRYLLRWQMPLCSLLTCLGLNILFLTLNEGAWYSMGALMISVPALLGYLQEVCRGQLPESELMRRKYHSIRQEDLQRVRLSRVHLSRPEAVAEVKSFLIQLEAFLARLCYTCESAYRVLHWENPVVSSQFYGALLGMVCMLYLLPLCWVLALLNSTLFLGNGDFFRVVCEYRACLQRRMNPRQEECACESSALQGAGGRGLLDSSPAPTPTEDLTPGSVEEAEEAEPDEEFKDAIEETHLVVLEDEEGTPCPAEDELTLQDNGFLSKNEVLRSKVSRLTERLRKRYPTNNFGNCAGCAATFSVLKKRRSCSNCGNSFCSRCCSFKVPRSSMGATAPEAQRETVCVCASCNQTLSK		2
